Results reported in patent US20240294610A1, “PEPTIDE FOR TREATING AGE-RELATED MACULAR DEGENERATION” (DAIICHI SANKYO COMPANY, LIMITED, priority 2016, published 2024).

Key:
HTRA1 (cat) = target: T1, HTRA1 (cat) (Homo sapiens, UniProt Q92743); experiment: HTRA1 (cat) inhibitory activity using peptide substrate H2-Opt (Example 3-1); assay type: biochemical; conditions: method of (3-1); peptide 1.875 to 1,000 nM
T1 construct: The protease domain (158Gly to 373Lys), except for the N-terminal domain and the PDZ domain, of human HTRA1 (Q92743); made in house; host or cells: E. coli BL21 (DE3)
Method: The protease domain (158Gly to 373Lys), except for the N-terminal domain and the PDZ domain, of human HTRA1 (Q92743) was used as HTRA1 (cat) to construct a HTRA1 (cat) expression vector. The desired DNA fragment was amplified by PCR ((94° C. for 15 sec, 60° C. for 30 sec, and 68° C. for 45 sec)×30 cycles) with a human HTRA1-inserted plasmid (GeneCopoeia, Inc.; GC-M0558) as a template using the following primers and KOD-plus-(Toyobo Co., Ltd.).
A substrate peptide H2-Opt (Mca-IRRVSYSFK(Dnp)K) (Peptide Institute, Inc.: SEQ ID NO: 54, FIG. 8) was dissolved at 10 mM in DMSO, diluted with an assay buffer (50 mM borate and 150 mM NaCl, pH 8.5), and used at a final concentration of 10 μM. HTRA1 (HTRA1 (cat) or HTRA1 (full)) and each HTRA1-inhibiting peptide diluted with an assay buffer were mixed at 25 μL each and reacted at 37° C. for 20 minutes. Then, 50 μL of the substrate diluted with an assay buffer was added thereto. A fluorescent signal (excitation at 328 nm/emission at 393 nm) was measured using Enspire (PerkinElmer, Inc.). […]
The substrate peptide decomposition rate of the HTRA1-inhibiting peptide at each concentration was calculated. When the decomposition rate at an inhibitor concentration of 0 nM was defined as 100%, the HTRA1 (cat) and HTRA1 (full) inhibitory activity of each HTRA1-inhibiting peptide was evaluated (FIGS. 2 and 3).

[1] = system: retinal damage induced by light exposure; experiment: Rat model of retinal damage induced by light exposure; assay type: in vivo
Method: Rat models of retinal damage induced by light exposure are models that induce the cell death of retinal photoreceptor cells by light exposure and are universally used as model animals of retinal degeneration (Daniel T. Organisciak et al., (1996) Invest Ophthalmol Vis Sci. Vol. 37 (No. 11): p. 2243-2257). A 0.5% (W/V) tropicamide-0.5% phenylephrine hydrochloride ophthalmic solution was ocularly instilled under adaptation to darkness to rats adapted to darkness for 72 hours. Then, the rats were exposed to white light of 5500 Lux for 3 hours. The rats thus exposed were adapted again to darkness for about 24 hours and then raised for 2 days under light-dark conditions of ordinary raising. After euthanasia, the eyeballs were excised and fixed by dipping in a 3.7% (W/V) formaldehyde-0.5 to 1% (W/V) methanol-0.2% (W/V) picric acid fixative for 24 hours or longer. After paraffin embedding, thin sliced sections were prepared. The sections were stained with hematoxylin-eosin, and a nucleus count in an outer nuclear layer at the cross-section of the retina was determined to evaluate retinal damage. […] Immediately before light exposure of rats, 5 micro L of HTRA1-inhibiting peptide […] having a concentration of 0.04 mg/mL or 0.2 mg/mL was intravitreally administered under anesthesia. n=4 for a normal saline administration group, and n=5 for the other groups. […] The retinal protective effects of three HTRA1-inhibiting peptides prepared in Example 6 were evaluated using the rat models of retinal damage induced by light exposure, constructed in Example (5-1). The operation followed Example 5. n=6 for all groups.

ARPE-19 cells = experiment: VEGF mRNA induction test using human retinal pigment epithelial cell ARPE-19; assay type: cell-based; conditions: H2O2 500 μM, normal human serum complement 25%, HTRA1 1 μM, peptide 1 μM, 4 hours
Method: ARPE-19 cells were cultured until confluent in 12 mm Transwell with 0.4 μm Pore Polyester Membrane Insert, Sterile (Corning Inc.) under conditions of 37° C. and 5% CO2 using a DMEM/F-12 medium (Wako Pure Chemical Industries, Ltd.) containing 10% fetal bovine serum (FBS) and penicillin-streptomycin (Thermo Fisher Scientific Inc.). Then, the cells were cultured in FBS-free DMEM/F-12 for 5 days. H2O2 (final concentration: 500 μM) was added to the upper and lower layers of the chamber, and normal human serum complement (Quidel Corp.) (final concentration: 25%) was added to the upper layer of the chamber. […] Four hours later, the culture supernatant was removed, and the cells were washed with PBS. Then, mRNA was extracted using SuperPrep™ Cell Lysis & RT Kit for qPCR (Toyobo Co., Ltd.) and subjected to reverse transcription reaction. The mRNA level of VEGF was quantitatively analyzed by TaqMan Gene Expression Assays (Hs000900055_m1 and Hs02786624_g1; Thermo Fisher Scientific Inc.) using 7900HT Fast Real-Time PCR System (Applied Biosystems, Inc.). GAPDH was used in the correction of the mRNA level.

[2] = system: human umbilical vein endothelial cells (HUVEC); experiment: HUVEC migration test; assay type: cell-based; conditions: 300 nM peptide in EGM growth medium; 2 hours
Method: HUVEC (Kurabo Industries Ltd.) was cultured for 18 hours under conditions of 37° C. and 5% CO2 in a medium (0.1% BSA-containing serum-free EGM) in which EBM™-2 basal medium (Lonza Walkersville, Inc.) containing 0.1% BSA was supplemented with EGM™-2 SingleQuots™ additive factor set except for serum and VEGF. Then, the cells were adjusted to 4×10^5 cells/mL with 0.1% BSA-containing serum-free EGM. 4×10^5 cells/mL of the HUVEC suspension was added at 50 μL/well to the upper layer of a chamber of Corning FluoroBlok HTS 96 Well Multiwell Permeable Support System with 3.0 μm High Density PET Membrane (Corning Inc.) having a gelatin-coated membrane. Then, each sample described below (medium 1, 2 or 3) was added at 210 μL/well to the lower layer of the chamber (n=3). […]
FluoroBlok HTS 96 Well Multiwell Support System supplemented with the cells and the sample was incubated for 2 hours under conditions of 37° C. and 5% CO2. […] The fluorescence intensity (excitation wavelength/fluorescence wavelength: 485 nm/535 nm) of each well was measured using a plate reader (ARVO-MX, PerkinElmer, Inc.), and the migrated cells were counted for each well according to the following expression.
Migrated cells=Mean fluorescence intensity of wells containing HUVEC (n=3)−Mean fluorescence intensity of blank wells (n=3).

RPE cells = experiment: Rabbit retinal damage model by loading with high-fat diet containing hydroquinone (HFD-HQ); assay type: in vivo; conditions: HFD-HQ-loaded 3-year-old rabbits; 50 μL of 40 mg/mL intravitreally after 2 months of feeding; evaluated after 4 months
From the text: Retinal damage models prepared using high-fat diet (HFD) and hydroquinone (HQ) are models in which oxidative stress is induced by a pro-oxidant to cause retinal damage. These models have been reported only for mice (Diego G. Espinosa-Heidmann et al., (2006) Invest Ophthalmol Vis Sci., Vol. 47 (No. 2): p. 729-737). Accordingly, 3-year-old JW rabbits were fed for 4 months with RC4 (Oriental Yeast Co., Ltd.) diet containing 1.5% (W/V) coconut oil-0.25% (W/V) cholesterol-1.5% (W/V) peanut oil-2.4% (W/V) hydroquinone (HFD-HQ) to construct rabbit retinal damage models. After euthanasia, the eyeballs were excised, and the anterior segment of the eye was removed by an external incision of about 5 mm from the corneal limbus. The vitreous body was further separated. Then, retina-choroid-sclera was fixed by dipping in 4% (W/V) paraformaldehyde fixative for 24 hours or longer. […] The stained choroid was observed under a fluorescence microscope (BZ-9000; Keyence Corp.). The area of stained retinal pigment epithelial (RPE) cells was determined to evaluate RPE cell damage.
The retinal protective effect of the HTRA1-inhibiting peptide H308 prepared in Example 1 was evaluated using the rabbit models. […]
After 4 months from the start of feeding, RPE cell hypertrophy in the model animals was evaluated. […]

T1 sequence (Q92743 158-373): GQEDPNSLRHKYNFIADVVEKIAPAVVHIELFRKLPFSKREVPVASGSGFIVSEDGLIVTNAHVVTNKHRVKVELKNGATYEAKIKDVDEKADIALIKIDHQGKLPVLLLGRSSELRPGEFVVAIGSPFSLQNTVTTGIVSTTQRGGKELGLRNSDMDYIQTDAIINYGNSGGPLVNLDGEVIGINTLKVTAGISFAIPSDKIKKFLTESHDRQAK

B1: wild-type SPINK2: human serine protease inhibitor Kazal-type 2, control, amino acid sequence SEQ ID NO: 1 (FIG. 13) (protein, listed as Homo sapiens)
chain: DPQFGLFSKYRTPNCSQYRLPGCPRHFNPVCGSDMSTYANECTLCMKIREGGHNIKIIRNGPC
B1 was tested, and the “HTRA1 (cat) inhibitory activity (decomposition rate of peptide substrate)” value (HTRA1 (cat)) was “no HTRA1 inhibitory activity”.

B2: H308_D1G_S16A: H308 derivative, 1Asp substituted by Gly and 16Ser by Ala, SEQ ID NO: 24 (FIG. 36) (protein)
chain: GPQFGLFSKYRTPNCADHAGMACVALYEPVCGSDMSTYENECVLCMKIREGGHNIKIIRNGPCGG
modifications: peptide H308_D1G_S16A
In the case of B2, the “nucleus count in an outer nuclear layer at the cross-section of the retina” value (shortened to “nucleus count in an outer nuclear layer”) ([1]; 0.2 and 1 μg/eye, n=6) is reported as “suppressed decrease in nucleus count in an outer nuclear layer”, the “expression of VEGF mRNA” value (ARPE-19 cells) is reported as “confirmed to suppress the expression of VEGF” and the “migration of HUVEC induced in the serum-containing medium” value [2] is reported as “suppressive effect on the migration of HUVEC”.

B3: H321AT_D1G_S16A: peptide derivative, amino acid sequence SEQ ID NO: 28 (FIG. 40) (protein)
chain: GPQFGLFSKYRTPNCADFDGMACYAFYEPVCGSDMSTYANECTLCMKIREGGHNIKIIRNGPCGG
modifications: peptide H321AT_D1G_S16A
In the case of B3, the “nucleus count in an outer nuclear layer” value ([1]; 0.2 and 1 μg/eye, n=6) is reported as “suppressed decrease in nucleus count in an outer nuclear layer”.

B4: H322AT_D1G_S16A: peptide derivative, amino acid sequence SEQ ID NO: 29 (FIG. 41) (protein)
chain: GPQFGLFSKYRTPNCAQHEGMACYALYEPVCGSDMSTYANECTLCMKIREGGHNIKIIRNGPCGG
modifications: peptide H322AT_D1G_S16A
B4 was tested, and the “nucleus count in an outer nuclear layer” value ([1]; 0.2 and 1 μg/eye, n=6) was “suppressed decrease in nucleus count in an outer nuclear layer”.

B5: H308: SPINK2 mutant HTRA1-inhibiting peptide, amino acid sequence SEQ ID NO: 9 (FIG. 21) (protein)
chain: DPQFGLFSKYRTPNCSDHAGMACVALYEPVCGSDMSTYENECVLCMKIREGGHNIKIIRNGPCGG
modifications: peptide H308
For B5, the “nucleus count in an outer nuclear layer” value ([1]; 5 micro L of 0.04 mg/mL or 0.2 mg/mL intravitreally immediately before light exposure) was “effect of suppressing decrease in nucleus count in an outer nuclear layer was confirmed”, the “hypertrophy of RPE cells, average area” value (RPE cells) was “exhibited a suppressive effect on the hypertrophy of RPE cells” and the “hypertrophy of RPE cells, number of RPE cells having a cell area of 1500 μm^2 or larger” value (RPE cells) was “exhibited a suppressive effect on the hypertrophy of RPE cells”.
